Measurements reported in US20050106660A1 (Pieris, published 2005).

Key:
hemoglobin (Sigma) [1] = biological target: T1, hemoglobin (Sigma); test: not stated there (affinity measured by SPR in Example 5)
T1 construct: Immobilized by amine coupling on a CM5 chip (ca. 5000 RU)
Experimental: (§1) The binding affinity of the anticalin HbgA to hemoglobin was determined by surface plasmon resonance (SPR) using the BIAcore X system (BIACORE). Hemoglobin (100 μg/ml, dissolved in 10 mM maleate, pH 6.0) was immobilized at an amount of ca. 5000 resonance units (RU) to the surface of one flow channel on a CM5 sensor chip (BIACORE) using the amine coupling kit (BIACORE) according to the manufacturer's instructions. Unreacted groups on the biosensor chip surface were blocked with 1 M ethanolamine hydrochloride-NaOH pH 8.5. […] The concentration of HbgA and also of ApoD were determined by absorption at 280 nm using a calculated extinction coefficient of 54600 M⁻¹ cm⁻¹ and 34150 M⁻¹ cm⁻¹, respectively (Gill and von Hippel, Anal. Biochem. 182 (1989), 319-326). […] The binding of HbgA to hemoglobin, immobilized on the sensor chip, was measured by applying each 75 μl of these protein solutions. Steady state resonance values were detected for the channel with the immobilized hemoglobin for each concentration applied. For each measurement the resonance value that was due to buffer effects and simultaneously measured for the second channel of the sensor chip, was subtracted, and the resulting difference value was plotted against the applied concentration. […]

[2] = biological target: T2, bovine serum albumin (BSA, Sigma) (bovine, UniProt P02769 25-607); test: SPR (BIAcore X), BSA immobilized on CM5 chip, steady state
T2 construct: Immobilized by amine coupling on a CM5 chip (ca. 5000 RU)
T2 sequence (P02769 25-607 limits assumed): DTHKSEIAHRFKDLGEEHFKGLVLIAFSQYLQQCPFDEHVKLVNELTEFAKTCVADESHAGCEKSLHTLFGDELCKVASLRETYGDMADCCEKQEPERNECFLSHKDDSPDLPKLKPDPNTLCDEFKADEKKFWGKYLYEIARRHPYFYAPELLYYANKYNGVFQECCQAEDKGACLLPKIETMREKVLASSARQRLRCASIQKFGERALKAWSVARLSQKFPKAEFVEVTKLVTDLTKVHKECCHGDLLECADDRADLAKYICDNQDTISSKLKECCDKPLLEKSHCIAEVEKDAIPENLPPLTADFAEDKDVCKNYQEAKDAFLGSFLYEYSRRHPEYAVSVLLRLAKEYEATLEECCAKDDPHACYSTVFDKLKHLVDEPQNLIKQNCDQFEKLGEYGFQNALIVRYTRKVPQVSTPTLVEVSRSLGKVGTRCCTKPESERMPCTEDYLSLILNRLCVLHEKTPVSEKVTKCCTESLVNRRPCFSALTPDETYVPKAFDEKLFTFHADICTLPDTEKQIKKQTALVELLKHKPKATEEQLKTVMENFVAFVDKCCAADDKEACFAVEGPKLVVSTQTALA

hemoglobin (Sigma) [3] = biological target: T1, hemoglobin (Sigma); test: SPR (BIAcore X), hemoglobin immobilized on CM5 chip, steady-state values fitted
Experimental: as §1

B1: anticalin HbgA (mutein of human apolipoprotein D), purified, with C-terminal Strep-Tag II (designed binder)
chain: QAFHLGKCPNPPVQENFDVNKYPGRWYEIEKIPQFVWMGRCIQANYSLMENGKIKVLNQFLRITLDVWQIEGEATPVNLTEPAKLEVKEGLGDPSAPYWILATDYENYALVYSCESFLWLFHWDFAWILARNVALPPETVDSLKNILTSNNIDVKKMTVTDQVNCPKLS
notes: The amber codon at position 34 was replaced by a Gln codon; Scaffold carries Leu23Pro, Cys116Ser, Pro133Val, Asn134Ala; also called mutein HbgA; not shown: Strep-Tag II fused to the C-terminus (expression from pApoD10)
Ka (hemoglobin (Sigma) [1]): > 1e+06 M⁻¹
binding result [2]: no binding
Kd (hemoglobin (Sigma) [3]): 2.2 µM
